According to patent WO2001096599A2:

Target: recombinant ED-B protein (UniProt P02751)
Assay: I-125 labelled antibody on a small column of ED-B sepharose, elution with TEA pH 11

Chain of UniProt P02751 (P02751 1266-1356 limits assumed): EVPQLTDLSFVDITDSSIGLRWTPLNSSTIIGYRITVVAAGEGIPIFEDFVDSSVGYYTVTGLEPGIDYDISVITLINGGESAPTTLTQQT

Substance: L19, human recombinant antibody directed against the Extra Domain B
- immuno-reactivity (% of labeled material that bound to the ED-B sepharose column and was eluted): 85 to 95%
